Measured values published in patent publication US6521594 (LA JOLLA CANCER RESEARCH FOUNDATION, dated 2003).
Starred links: 1 amine or outer side, 2 acyl side, 3 side chain; linkers in the order of their positions; H or OH if unused. Positions of bridges follow the written chain, without caps; N, C: chain ends. Non-standard residues stand in square brackets, D forms with d. Primed or numbered codes have the meaning given here. No end group written: not given here. Tyr(OMe)″ = O-methyl-tyrosine (Y-OMe, TyrOMe, O-Me-Tyr), COc1ccc(C[C@H](N[*:1])C(=O)[*:2])cc1; Tyr(OMe) = O-methyl-tyrosine (O-Me-Tyr, Y-OMe), COc1ccc(C[C@H](N[*:1])C(=O)[*:2])cc1; Tyr(Me) = O-methyl-tyrosine (Y-OMe, O-Me-Tyr), COc1ccc(C[C@H](N[*:1])C(=O)[*:2])cc1; t‑but‑am‑Pmp = tert-butyl-substituted beta,beta-pentamethylenecysteine; Tyr(OMe)(3) = O-methyl-tyrosine, COc1ccc(C[C@H](N[*:1])C(=O)[*:2])cc1; Cys(β,β-pentamethylene) = O=C([C@@H](N[*:1])C1(S[*:3])CCCCC1)[*:2]; O‑Me‑Tyr = O-methyl-tyrosine, COc1ccc(C[C@H](N[*:1])C(=O)[*:2])cc1; Pen = CC(C)(S)[C@H](N)C(=O)O; code O = not defined here

B1: R(t-but-am-Pmp)GHRGDLRCR-2 (peptide)
peptide: R[t‑but‑am‑Pmp]GHRGDLRCR
modifications: disulfide 2-10; not fully specified; printed as R(t-but-am-Pmp)GHRGDLRCR-2; also: second HPLC peak, configuration not assigned
B2: Ac(Pmc)GHRGD(O-Me-Tyr)RC-NH2 (peptide)
peptide: Ac-[Cys(β,β-pentamethylene)]GHRGD[Tyr(OMe)]RC-NH2
modifications: disulfide 1-9
SMILES: COc1ccc(C[C@@H]2NC(=O)[C@H](CC(=O)O)NC(=O)CNC(=O)[C@H](CCCNC(=N)N)NC(=O)[C@H](Cc3c[nH]cn3)NC(=O)CNC(=O)[C@@H](NC(C)=O)C3(CCCCC3)SSC[C@@H](C(N)=O)NC(=O)[C@H](CCCNC(=N)N)NC2=O)cc1

How the values were obtained:
[1] = target: T1, Platelet glycoprotein IIb/IIIa (human, UniProt P08514 32-1039; P05106 27-788); experiment: competition, ELISA or liposome assay
T1 construct: mature; on human platelets in the aggregation assays (functional rows); also called GP IIb/IIIa; GPIIbIIIa

Vitronectin receptor = target: T2, Vitronectin receptor (human, UniProt P06756 31-1048; P05106 27-788); experiment: competition, ELISA or liposome assay, vitronectin coated
T2 construct: mature; also called Vn-R; VnR
T2 sequence (P06756 31-1048, chain 1 of 2): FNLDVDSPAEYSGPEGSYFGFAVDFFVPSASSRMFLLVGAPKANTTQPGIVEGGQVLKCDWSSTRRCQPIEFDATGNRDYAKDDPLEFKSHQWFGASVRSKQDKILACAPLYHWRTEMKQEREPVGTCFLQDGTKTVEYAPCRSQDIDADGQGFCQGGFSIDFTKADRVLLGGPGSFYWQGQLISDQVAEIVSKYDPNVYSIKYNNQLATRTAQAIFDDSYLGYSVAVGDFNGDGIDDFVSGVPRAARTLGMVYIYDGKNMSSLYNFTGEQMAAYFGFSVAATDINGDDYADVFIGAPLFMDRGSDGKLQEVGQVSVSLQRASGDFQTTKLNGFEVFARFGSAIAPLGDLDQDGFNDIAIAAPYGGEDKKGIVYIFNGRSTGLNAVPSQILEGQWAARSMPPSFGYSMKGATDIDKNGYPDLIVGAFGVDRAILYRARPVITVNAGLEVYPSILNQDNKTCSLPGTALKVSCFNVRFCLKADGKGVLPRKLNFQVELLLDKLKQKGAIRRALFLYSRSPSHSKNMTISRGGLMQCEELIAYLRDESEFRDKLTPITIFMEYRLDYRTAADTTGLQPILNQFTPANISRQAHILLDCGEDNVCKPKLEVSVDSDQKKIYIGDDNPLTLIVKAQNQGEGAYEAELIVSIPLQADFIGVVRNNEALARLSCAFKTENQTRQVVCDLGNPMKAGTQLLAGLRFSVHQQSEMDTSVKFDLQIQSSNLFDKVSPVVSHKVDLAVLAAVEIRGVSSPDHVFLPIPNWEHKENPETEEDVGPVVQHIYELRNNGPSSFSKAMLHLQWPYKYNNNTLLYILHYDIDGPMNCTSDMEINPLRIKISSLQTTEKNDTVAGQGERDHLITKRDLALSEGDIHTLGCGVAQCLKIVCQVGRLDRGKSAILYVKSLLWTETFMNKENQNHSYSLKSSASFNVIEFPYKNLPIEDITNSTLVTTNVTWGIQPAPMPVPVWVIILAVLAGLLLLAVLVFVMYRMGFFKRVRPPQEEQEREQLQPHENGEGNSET
T2 sequence (P05106 27-788, chain 2 of 2): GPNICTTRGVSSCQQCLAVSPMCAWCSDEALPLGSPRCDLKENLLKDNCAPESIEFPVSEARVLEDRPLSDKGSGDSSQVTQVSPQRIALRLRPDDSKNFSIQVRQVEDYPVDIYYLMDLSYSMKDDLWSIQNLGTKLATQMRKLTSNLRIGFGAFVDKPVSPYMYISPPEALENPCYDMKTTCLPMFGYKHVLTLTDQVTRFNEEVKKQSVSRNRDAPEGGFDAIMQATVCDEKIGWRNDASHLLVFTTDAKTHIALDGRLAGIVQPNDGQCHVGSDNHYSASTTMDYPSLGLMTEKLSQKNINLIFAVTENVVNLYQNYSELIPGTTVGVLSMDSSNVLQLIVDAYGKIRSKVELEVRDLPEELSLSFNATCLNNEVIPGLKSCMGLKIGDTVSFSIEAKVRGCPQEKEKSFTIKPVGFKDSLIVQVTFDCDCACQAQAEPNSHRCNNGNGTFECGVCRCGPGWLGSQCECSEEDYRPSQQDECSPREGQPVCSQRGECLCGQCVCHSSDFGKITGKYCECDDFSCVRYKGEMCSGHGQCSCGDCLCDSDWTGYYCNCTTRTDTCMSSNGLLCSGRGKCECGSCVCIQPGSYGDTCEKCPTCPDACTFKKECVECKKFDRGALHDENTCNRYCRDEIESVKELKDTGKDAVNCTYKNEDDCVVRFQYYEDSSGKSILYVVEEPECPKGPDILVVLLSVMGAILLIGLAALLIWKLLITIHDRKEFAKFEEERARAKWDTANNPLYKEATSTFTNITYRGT

[2] = target: T1, Platelet glycoprotein IIb/IIIa; experiment: cell-based or functional assay
Fibronectin receptor = target: T3, Fibronectin receptor (human, UniProt P08648 42-1049; P05556 21-798); experiment: competitive ELISA, fibronectin coated
T3 construct: mature; Purified on a 110 kd fibronectin fragment column; also called Fn-R; FnR
T3 sequence (P08648 42-1049, chain 1 of 2): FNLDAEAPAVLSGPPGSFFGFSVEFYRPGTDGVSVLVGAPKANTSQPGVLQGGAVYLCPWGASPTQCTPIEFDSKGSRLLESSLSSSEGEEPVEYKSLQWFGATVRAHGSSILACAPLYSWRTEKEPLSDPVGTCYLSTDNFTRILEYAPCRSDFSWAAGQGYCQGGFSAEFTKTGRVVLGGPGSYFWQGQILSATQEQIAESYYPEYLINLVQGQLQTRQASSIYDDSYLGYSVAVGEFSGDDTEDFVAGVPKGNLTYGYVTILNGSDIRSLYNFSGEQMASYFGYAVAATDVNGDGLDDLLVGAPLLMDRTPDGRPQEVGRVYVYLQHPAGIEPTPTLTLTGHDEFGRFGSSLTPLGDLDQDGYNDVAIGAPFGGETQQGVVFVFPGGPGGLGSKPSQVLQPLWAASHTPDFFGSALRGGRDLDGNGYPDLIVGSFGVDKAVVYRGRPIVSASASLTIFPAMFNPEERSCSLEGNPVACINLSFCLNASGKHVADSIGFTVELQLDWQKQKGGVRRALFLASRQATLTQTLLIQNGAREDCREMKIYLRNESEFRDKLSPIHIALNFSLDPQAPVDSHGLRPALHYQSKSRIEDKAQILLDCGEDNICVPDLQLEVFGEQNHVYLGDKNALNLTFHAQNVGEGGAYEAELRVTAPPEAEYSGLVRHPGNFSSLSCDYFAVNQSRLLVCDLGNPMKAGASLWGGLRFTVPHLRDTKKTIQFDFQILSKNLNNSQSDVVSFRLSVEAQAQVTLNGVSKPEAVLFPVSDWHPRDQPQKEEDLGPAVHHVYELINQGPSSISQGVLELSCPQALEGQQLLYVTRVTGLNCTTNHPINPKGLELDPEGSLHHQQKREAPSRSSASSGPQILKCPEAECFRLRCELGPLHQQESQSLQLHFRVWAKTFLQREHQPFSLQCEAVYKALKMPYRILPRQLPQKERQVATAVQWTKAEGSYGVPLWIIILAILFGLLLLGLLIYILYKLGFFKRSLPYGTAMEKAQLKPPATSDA
T3 sequence (P05556 21-798, chain 2 of 2): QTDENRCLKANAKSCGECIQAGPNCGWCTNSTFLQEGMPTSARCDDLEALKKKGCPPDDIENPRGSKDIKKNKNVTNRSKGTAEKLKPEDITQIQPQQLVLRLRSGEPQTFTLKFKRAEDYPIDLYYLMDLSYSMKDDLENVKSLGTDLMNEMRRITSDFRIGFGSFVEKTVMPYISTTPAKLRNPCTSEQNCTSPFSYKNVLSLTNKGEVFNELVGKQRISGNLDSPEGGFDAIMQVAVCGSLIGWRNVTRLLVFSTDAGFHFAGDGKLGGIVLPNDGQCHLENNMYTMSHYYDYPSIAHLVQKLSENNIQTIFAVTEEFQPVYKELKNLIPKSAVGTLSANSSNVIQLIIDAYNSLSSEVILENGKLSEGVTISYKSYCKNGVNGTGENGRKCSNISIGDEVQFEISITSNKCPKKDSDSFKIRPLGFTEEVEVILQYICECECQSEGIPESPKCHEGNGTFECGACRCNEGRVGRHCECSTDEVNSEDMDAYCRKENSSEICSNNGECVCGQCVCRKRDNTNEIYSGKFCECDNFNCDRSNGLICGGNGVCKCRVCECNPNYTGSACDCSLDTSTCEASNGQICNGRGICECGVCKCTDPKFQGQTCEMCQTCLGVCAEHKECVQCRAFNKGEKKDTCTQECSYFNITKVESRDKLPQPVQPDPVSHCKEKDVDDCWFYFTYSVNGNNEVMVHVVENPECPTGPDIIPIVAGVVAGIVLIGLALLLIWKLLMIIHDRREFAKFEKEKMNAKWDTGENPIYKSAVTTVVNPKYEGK

[3] = target: T1, Platelet glycoprotein IIb/IIIa; experiment: cell-based or functional assay; remark: listed apart in the source
[4] = target: T1, Platelet glycoprotein IIb/IIIa; experiment: cell-based or functional assay; remark: listed apart in the source

Binder | IC50 [1] | IC50 (Vitronectin receptor) | IC50 (Fibronectin receptor) | also measured
R[Cys(β,β-pentamethylene)]GHRGD[O‑Me‑Tyr]RCR (disulfide 2-10, also called R(Pmc)GHRGD(Y-OMe)RCR; 5O) [R(Pmc)GHRGD(O-Me-Tyr)RCR] | 60 nM | – | – | –
B1 | 60 nM | 3700 nM | – | –
B2 | 400 nM | 10000 nM | – | –
FRGDSPDG | – | 40 nM | 2400 nM | IC50, ADP-Stimulated Aggregation [2]: 110000 nM
VRGDSPDG | 270 nM | 240 nM | 40 nM | IC50, ADP-Stimulated Aggregation [2]: 92000 nM
R[Pen]GHRGDWRCR (disulfide 2-10, also called 4Q) [R(Pen)GHRGDWRCR] | 800 nM | – | – | IC50 (µM) Human Platelet Aggregation [3]: 3.3 µM
R[Cys(β,β-pentamethylene)]GHRGDWRCR (disulfide 2-10; not fully specified; printed as R(am-Pmp)GHRGDWRCR-1) [R(am-Pmp)GHRGDWRCR-1] | 60 nM | – | – | –
Ac-CDPRGD[Tyr(OMe)″]RC-NH2 (disulfide 1-9 (inferred)) [AcCDPRGD(TyrOMe)RC-NH2] | – | – | – | Inhibition of Platelet Aggregation, IC50 [4]: 3000 nM
R[Cys(β,β-pentamethylene)]GHRGD[Tyr(Me)][code O]CR (disulfide 2-10; reading uncertain; also: printed as R(Pmc)GHRGD(O-Me-Tyr)OCR) [R(Pmc)GHRGD(O-Me-Tyr)OCR] | 7 nM | – | – | –
R[Cys(β,β-pentamethylene)]GHRGDLRCR (disulfide 2-10; not fully specified; printed as R(am-Pmp)GHRGDLRCR-1) [R(am-Pmp)GHRGDLRCR-1] | 400 nM | – | – | –
T[Cys(β,β-pentamethylene)]GHRGD[Tyr(OMe)(3)]RCR (disulfide 2-10; not fully specified; printed as T(Pmc)GHRGD(O-Me-Tyr)RCR) [T(Pmc)GHRGD(O-Me-Tyr)RCR] | – | 10000 nM | 10000 nM | –
R[Pen]GRGDTPCA (disulfide 2-9) [R(Pen)GRGDTPCA] | – | 30 nM | 80 nM | IC50, ADP-Stimulated Aggregation [2]: 7000 nM
